This passage reports AC-SINS (wavelength of maximum absorbance relative to blank, nm) results from US20240076386.

Changes are numbered by the printed parent chain.

A short description of the data set: AC-SINS self-interaction.

B1: optimized anti-E-selectin antibody 1282 (protein)
chain 1: EVQLVESGGGLVQPGGSLRLSCAASGYAIRSAYMHWVRQAPGKGLEWVARIDPANGNTIYVDSVEGRFTISADNAKNSAYLQMNSLRAEDTAVYYCAMDLYSTSEYWGQGTLVTVSSASTKGPSVFPLAPSSKSTSGGTAALGCLVKDYFPEPVTVSWNSGALTSGVHTFPAVLQSSGLYSLSSVVTVPSSSLGTQTYICNVNHKPSNTKVDKKVEPKSCDKTHTCPPCPAPEAAGAPSVFLFPPKPKDTLMISRTPEVTCVVVDVSHEDPEVKFNWYVDGVEVHNAKTKPREEQYNSTYRVVSVLTVLHQDWLNGKEYKCKVSNKALPAPIEKTISKAKGQPREPQVYTLPPSREEMTKNQVSLTCLVKGFYPSDIAVEWESNGQPENNYKTTPPVLDSDGSFFLYSKLTVDKSRWQQGNVFSCSVMHEALHNHYTQKSLSLSPG
chain 2: DIQMTQSPSSLSASVGDRVTITCKTSQNIERYLNWYQQKPGKAPKLLIYAASSLQSGVPSRFSGSGSGTDFTLTISSLQPEDFATYFCLQDNAWPLTFGQGTKVEIKRTVAAPSVFIFPPSDEQLKSGTASVVCLLNNFYPREAKVQWKVDNALQSGNSQESVTEQDSKDSTYSLSSTLTLSKADYEKHKVYACEVTHQGLSSPVTKSFNRGEC
With B1, the AC-SINS (wavelength of maximum absorbance relative to blank, nm) worked out at 1 nm.

B2: optimized anti-E-selectin antibody 1284 (protein)
chain 1: B1 chain 1 with D62E
chain 2: B1 chain 2
For the protein B2, the AC-SINS (wavelength of maximum absorbance relative to blank, nm) came out at 1 nm.

B3: optimized anti-E-selectin antibody 1448 (protein)
chain 1: B1 chain 1 with E65K, G66E
chain 2: B1 chain 2
B3 registered an AC-SINS (wavelength of maximum absorbance relative to blank, nm) of 1 nm.

B4: optimized anti-E-selectin antibody 1444 (protein)
chain 1: B1 chain 1 with E65T
chain 2: B1 chain 2
B4 gave an AC-SINS (wavelength of maximum absorbance relative to blank, nm) of 1 nm.
